Experimental data reported in PMC8825603 (Theranostics, 2022).

Tests used:
Assay in all cases: cellular equilibrium binding of GpL (luciferase)-tagged antibody variants; HEK293 cells transiently transfected with a CD40, 41BB or PD-L1 expression plasmid; increasing concentrations of GpL-tagged antibody variants (cell culture supernatants); 37 °C, 1.5 h; washed three times with ice cold PBS; binding to empty vector cells subtracted; one site specific binding fit
Conditions in all cases: partners not purified
[1] = target: T1, CD40 (Homo sapiens (species ), UniProt P25942)
T1 construct: CD40, expressed on HEK293 cells from an expression plasmid (gift of Pascal Schneider); also called cluster of differentiation 40; source: HEK293, transiently transfected with a CD40 expression plasmid, on cells
T1 sequence (P25942 21-277): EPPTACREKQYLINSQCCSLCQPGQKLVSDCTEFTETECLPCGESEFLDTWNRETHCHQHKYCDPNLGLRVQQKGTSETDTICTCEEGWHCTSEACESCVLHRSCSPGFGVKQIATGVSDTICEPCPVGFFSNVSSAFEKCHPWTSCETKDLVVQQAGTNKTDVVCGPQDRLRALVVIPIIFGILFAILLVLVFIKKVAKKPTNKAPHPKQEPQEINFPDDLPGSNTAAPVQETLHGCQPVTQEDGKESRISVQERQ

[2] = target: T2, 41BB (Homo sapiens (species ), UniProt Q07011)
T2 construct: 41BB, expressed on HEK293 cells from an expression plasmid (gift of Pascal Schneider); source: HEK293, transiently transfected with a 41BB expression plasmid, on cells
T2 sequence (Q07011 24-255): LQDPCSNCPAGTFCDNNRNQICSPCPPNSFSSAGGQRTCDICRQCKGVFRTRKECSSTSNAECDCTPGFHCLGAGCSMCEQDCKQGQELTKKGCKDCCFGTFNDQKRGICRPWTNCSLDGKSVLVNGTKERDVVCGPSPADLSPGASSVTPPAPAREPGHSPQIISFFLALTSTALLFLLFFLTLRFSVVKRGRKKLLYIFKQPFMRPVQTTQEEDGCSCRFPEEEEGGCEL

[3] = target: T3, PDL1 (UniProt Q9NZQ7)
T3 construct: PDL1, expressed on HEK293 cells from the expression plasmid pCMV6-XL4 (Origene Technologies); also called PD1 Ligand 1; PD1L; source: HEK293, transiently transfected with a PDL1 expression plasmid (pCMV6-XL4, Origene), on cells
T3 sequence (Q9NZQ7 19-290): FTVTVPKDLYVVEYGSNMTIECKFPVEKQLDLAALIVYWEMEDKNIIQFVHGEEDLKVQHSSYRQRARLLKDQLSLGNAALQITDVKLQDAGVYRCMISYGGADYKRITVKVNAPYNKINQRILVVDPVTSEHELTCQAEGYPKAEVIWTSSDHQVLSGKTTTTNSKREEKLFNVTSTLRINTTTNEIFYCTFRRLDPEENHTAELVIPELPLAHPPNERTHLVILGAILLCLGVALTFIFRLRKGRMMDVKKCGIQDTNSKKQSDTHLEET

[4] = target: T3, PDL1; remark: listed apart in the source

binding result [3] | binding result [4] | Binder | also measured
 | no binding | α41BB-Fab2-GpL (Fab, V domains shown, VH of the anti-41BB antibody HBBK4; linker L6; CH1: constant heavy chain of human IgG1, aa 145-260 of GenBank AAA02914.1; numbers count on: GenBank AAA02914.1; VL of the anti-41BB antibody HBBK4; linker L4; constant light chain, aa 105-214 of GenBank BAA97671.1; numbers count on: GenBank BAA97671.1; Bivalent Fab2 format; source: HEK293, transiently transfected (PEI), cell culture supernatant; …) VH: QVQLQQSGAEVIKPGASVKLSCKASGYTFSSYWMHWVRQAPGQGLEWIGEINPGNGHTNYNEKFKSRATLTGDTSTSTVYMELSSLRSEDTAVYYCARSFTTARAFAYWGQGTLVTVSS VL: DIVMTQSPAFLSVTPGEKVTITCRASQTISDYLHWYQQKPDQAPKLLIKYASQSISGIPSRFSGSGSGTDFTFTISSLEAEDAATYYCQDGHSFPPTFGQGTKLEIK | 
 | no binding | α41BB-N297A-GpL (antibody, V domains shown, VH of the anti-41BB antibody HBBK4; linker L6; constant heavy chain of human IgG1, aa 145-476 of GenBank AAA02914.1, with N297A (the footnote prints 'A to N mutation at position 327'); VL of the anti-41BB antibody HBBK4; linker L4; constant light chain, aa 105-214 of GenBank BAA97671.1; numbers count on: GenBank BAA97671.1; IgG1(N297A); also called α41BB-IgG1(N297A); source: HEK293, transiently …) VH: QVQLQQSGAEVIKPGASVKLSCKASGYTFSSYWMHWVRQAPGQGLEWIGEINPGNGHTNYNEKFKSRATLTGDTSTSTVYMELSSLRSEDTAVYYCARSFTTARAFAYWGQGTLVTVSS VL: DIVMTQSPAFLSVTPGEKVTITCRASQTISDYLHWYQQKPDQAPKLLIKYASQSISGIPSRFSGSGSGTDFTFTISSLEAEDAATYYCQDGHSFPPTFGQGTKLEIK | 

Continued, binder first:

Binder | binding result [3] | binding result [4] | also measured
αPDL1-N297A-GpL (antibody, V domains shown, VH of the anti-PDL1 antibody Avelumab; linker L6; constant heavy chain of human IgG1, aa 145-476 of GenBank AAA02914.1, with N297A (the footnote prints 'A to N mutation at position 327'); VL of the anti-PDL1 antibody Avelumab; linker L4; constant light chain, aa 105-214 of GenBank BAA97671.1; numbers count on: GenBank BAA97671.1; IgG1(N297A); also called αPDL1-IgG1(N297A); parental anti-PDL1 …) VH: EVQLLESGGGLVQPGGSLRLSCAASGFTFSSYIMMWVRQAPGKGLEWVSSIYPSGGITFYADTVKGRFTISRDNSKNTLYLQMNSLRAEDTAVYYCARIKLGTVTTVDYWGQGTLVTVSS VL: QSALTQPASVSGSPGQSITISCTGTSSDVGGYNYVSWYQQHPGKAPKLMIYDVSNRPSGVSNRFSGSKSGNTASLTISGLQAEDEADYYCSSYTSSSTRVFGTGTKVTVL |  |  | binding result [1]: no binding; binding result [2]: no binding
αCD40-Fab2-GpL (Fab, V domains shown, VH of the anti-CD40 antibody C; linker L6; CH1: constant heavy chain of human IgG1, aa 145-260 of GenBank AAA02914.1; numbers count on: GenBank AAA02914.1; VL of the anti-CD40 antibody C; linker L4; constant light chain, aa 105-214 of GenBank BAA97671.1; numbers count on: GenBank BAA97671.1; Bivalent Fab2 format; source: HEK293, transiently transfected (PEI), cell culture supernatant; copies: 2 + …) VH: QVQLVQSGAEVKKPGASVKVSCTASGFNIKDYYVHWVKQAPGQGLEWMGRIDPEDGDSKYAPKFQGKATMTADTSTSTVYMELSSLRSEDTAVYYCTTSYYVGTYGYWGQGTLVTVSS VL: DIQMTQSPSSLSASVGDRVTITCSASSSVSYMLWFQQKPGKAPKLLIYSTSNLASGVPSRFSGSGSGTDFTLTISSLQPEDFATYYCQQRTFYPYTFGGGTKVEIK | no binding |  | 
αCD40-N297A-GpL (antibody, V domains shown, VH of the anti-CD40 antibody C; linker L6; constant heavy chain of human IgG1, aa 145-476 of GenBank AAA02914.1, with N297A (the footnote prints 'A to N mutation at position 327'); VL of the anti-CD40 antibody C; linker L4; constant light chain, aa 105-214 of GenBank BAA97671.1; numbers count on: GenBank BAA97671.1; IgG1(N297A); also called αCD40-IgG1(N297A); source: HEK293, transiently …) VH: QVQLVQSGAEVKKPGASVKVSCTASGFNIKDYYVHWVKQAPGQGLEWMGRIDPEDGDSKYAPKFQGKATMTADTSTSTVYMELSSLRSEDTAVYYCTTSYYVGTYGYWGQGTLVTVSS VL: DIQMTQSPSSLSASVGDRVTITCSASSSVSYMLWFQQKPGKAPKLLIYSTSNLASGVPSRFSGSGSGTDFTLTISSLQPEDFATYYCQQRTFYPYTFGGGTKVEIK | no binding |  | 
